# Measured values taken from the nanobody polyreactivity screen of Harvey et al. (2022).
# Test: yeast display, Sf9 membrane polyspecificity reagent, FACS + sequencing; frameworks hold sequencing errors
# Outline: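 A synthetic nanobody library was expressed on Saccharomyces cerevisiae BJ5465 by galactose induction for 36–48 hours. The library was stained for 1 hour at 4 °C with 10% biotinylated, detergent-solubilized Sf9 membrane reagent and enriched with streptavidin microbeads before FACS. Low and high (top ~1%) gates were set on anti-HA fluorescence for expression and streptavidin fluorescence for reagent binding, and each polyreactivity label reflects the gate of origin.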
row,Sequence,polyreactivity (PSR sort gate)
1,QVQLVESGGGLVQAGGSLRLSCAASGSIFHVNAMGWYRQAPGKERELVAGISDGGSTYYADSVKGRFTISRDNAKNTVYLQMNSLKPEDTAVSYCAAESEQWYSYVLSYVWEYDYWGQGTHVTVSS,low polyreactivity
2,QVQLVESGGGLVQAGGSLRLSCAASGFTFHFYAMGWYRQAPGKEREWVAAISWRGSSTYYADSVKGRFTISRDNAKNTVYLQMNSLKPEDTAVYYWNALYYYPYDYWGQGTQVTVSS,high polyreactivity
3,QVQLVESGGGLVQAGGSLRLSCAASGRIFRAYAMGWYRQAPGKERELVADIRGGGSTNYADSVKGRFTISRDNAKNTVYLQMNSLKPEDTAVYYCNAAAYRGMRQGPRYYYWGQGTQVTVSS,high polyreactivity
4,QVQLVESGGGLVQAGGSLRLSCAASGSIFFNYAMGWYRQAPGKERELVAAISSNGGRTYYADSVKGRFTISRDNAKNTVYLQMNSLKPEDTAVYYCAARVYDYPRFGYWGQGTQVTVSS,high polyreactivity
5,QVQLVESGGGLVQAGGSLRLSCAASGLIFYYYAMGGYRQAPGTQRELVACITGGDSTNYADSVKGRFTISRDNAKNTVYLQMNSLKPEDTAVYYCAAEFYGSSFGYRTYDYYYWGQGTEVTVSS,low polyreactivity
6,QVQLVETGGGLVQAGGSLRISCAASGFTFSSYVMGWYRQAPGKERELVAAITRGGGSTYYADSVKGRFTISRDNAKNTVYLQMNRLKPEDTAVYYCAARGWRYSYTSVLFDYCGQGTQVTVSS,high polyreactivity
7,QVQLVESGGGLVQAGGSLRLSCAASGSIFGHNAMGWYRQAPGKERELVAAITSTGGSTYYADSVKGRFTISRDNAKNTVYLQMNSLKPEDTAVYYCAKGWYAGYPYDYWGQGTQVTVSS,low polyreactivity
8,QVQLVESGGGLDQAGGSLRLICAASGSTFYIYAMGWYRQAPGKEREFVAAIDFSGSSTYADSVKGRFTISRDNAKNPVYLQMNTLKPEDTAVYYCAAYQIYQYDGPYDYWGQGTQVTVSS,low polyreactivity
9,QVQLVESGGGLVQAGGSLRLSCAASGSTFSFYAMGWYRQAPGKERELVAVFTRGGSTYYADSVKGRFTISRDNAKNTVYLQMNSLKPEDTAVYYCAARSTSNGQRSLHYGYWGQGTQVTVSS,low polyreactivity
10,QVQLVESGGGLVQAGGSLRLSCAASGRIFRGYAMGWYRQAPWKERELVAAISRSGGSTYYADSVKGRFTISRDNAKNTVYLQMNSLKPVDTAVYYCAAYTYSAGGYWGQGSQVTVSS,high polyreactivity
11,QVQLVESGGGLVQAGGSLRLSCAASGSTFTYYAMGWYRQAPGKERELVAAITFRGDSTYYADSVKGRFTISRDNAKNTVYLQMNSLKPEDTAVYYCNADSISSTYYDEDYWGQGTQVTVSS,low polyreactivity
12,QVQLVESGGGLVQAGGSLRLSCAASGSIFRLYALGWYRQAPGKERELVAAISRRGGSTNYADSVKGRFTISRDNAKNTVYFQMNSLKPEDTAVYYCARDVDTHYPYAYDYWGQGTQVTVSS,high polyreactivity
13,QVQLVESGGGLVQAGGSLRLSCAASGRIFIGNAMGWYRQAPGKERELVADISYSGGTTYYADSVKGRFTISRENAKNTVYVQMNSLKPVDTAVYYCNKYDPRPVWQGWVWIEYYYWGQGTQVTVSS,low polyreactivity
14,QVQLVDSGGGLVQAGGSLRLSCAASGRTIPYYAMGWYRQAPGKERELVAAISSSGGRTYYADSVKGRFTISRDNAKNTVYLQMNSLKPEDTAVYYCNVDAWYPYQGFLVGYYYWGQGTQVTVSS,low polyreactivity
15,QVQLVESAGGLVQAGGILRLSCAASGRTFEGNPMGWYRQAPGKERELVAAITSGGRTNYADSVKGRLTISRDNAKNTVYLQMNSLKPEDTAVYYCAATSTYRSYREYDYWGQGTQVTVSS,low polyreactivity
16,QVQLVESGGGLVQAGGSLRLSCAASGSNFRGNAKGWSRQAPGKERELVAAISKSGGSTYYADSVKGRFTISRDNAKNTVYLQMNSLKPEDTAVYYCAARTTYLYGMYYWGQGTQVTVSS,low polyreactivity
17,QVQLVESGGGLVQAGGSLRLSCAASGSTFKVNAMGWYRQAPGKERELVAAISRGGSTYADSVKGRFTISRDNAKNTVYFQINSLKPEDTAVYYCAAKSRYFQPDEYYYWGQGTQVTVSS,high polyreactivity
18,QVQLVESGGGLVQAGGSLRLSCAASGSIFSSYAMGWYRPAPGNERELVAAISKSGGSTYYADSVKGRFTISRDNAKNTVYLQMNSLKPEDTAVYYCAARTRQLEYNSWGQGTQVTVSS,high polyreactivity
19,QVQLVESGGCLVQAGGSLRLSCAASGRILLHNAMGWYRQAPGKERELVAAITNGGSTYYADSVKGRFTISRDNAKNTVYLQMNSLKPEDTAVYYCAARTRLAQYSRGRYRYDYWGQGTQVTVSS,high polyreactivity
20,QVQLEESGGGLVQAGGSLRLSCAASGFTFYYYTMGWYRQAPGKERELVAAITWRGGSTNYADSVKGRFTISRDNAKNTVYLQMNSLKPEEPAVYYCAAVTYWFWPGMDYWGQGTQVTVSS,low polyreactivity
21,QVQLEESGGGLVQAGGSLRLSCAASGRIFSNNVMGWYRQAPGKERELVATISTDGRTNYADSVKGRFTISRDNAKNTVYLQMNSLKPEDTAVYYCAATGVTILLSSKSDYWGQGTQVTVSS,low polyreactivity
22,QVQLEVSGGGLVQAGRSLRLSCAASGSTFYGYAMGWYRQAPGKERELVAAITSSGGSTYYADSVKGRFTISRDNAKNTVYLQMNSLKPEDTAVYYCNAKRAPWGTLYNYWGQGTQVTVSS,high polyreactivity

row,Sequence,polyreactivity (PSR sort gate)
1,QVQLVESGGCLVQAGCSLSLSCAASGITFRPYAMGWYRQAPGKERELVAAIRWDGGSTYYADSVKGRFTISRDNAKNTVYLQMNSMKPEDTAVDYCAAKRPTHVRKMDYWGQGTQVTVSS,high polyreactivity
2,QVQLVESGGGLVQAGGSLRLSCAASGTFAFYTMGWYRQAPGKERELVAAISWDGGDTYYADSVKGRFTISRDNAKNTVYLQMNSLKPEDTAVYYCAADYSNSGYGYWGQGTQVTVSS,low polyreactivity
3,QVQLVESGGGLVQAGGSLRLSCAASGSIFIYYAMGWYRQAPGKERELVAAISWSGGDTYYADSVKGRFTISRDNAKNTVYLQMNSLKPEDTAVYYCNADYDPYYPYTAWDTVLTHDEYWGQGTQVTVSS,low polyreactivity
4,QVQLVESGGGLVQAGGSLRLSCAASGSTFYLYAMGWYRQAPGKERELVAAITRGGTTNYADSVKGRFTISRDNAKNTVYLQMNSLKPEDTAVYYCAKEVTTLLSLYEIVDRDYWGQGTQVTVSS,low polyreactivity
5,QVQLVESGGCLVQAGGSLRLSCAASGNTFWVNSMGWYRQAPGKERELVAGITSSGDSTSYADSVKGRFTISRDNAKNTVYLQMNSLKPEDTAVYYCAADVGGFWYTEYYWGQGTQVTVSS,high polyreactivity
6,QVQLVESGGGLVQAGGSLRLSCAASGSTISRNAMGWSRQAPGKERELVAAISWRGGRTYYADSVKGRFTISRDNAKNTVYLQMNSLKPEDTAVYYCAAEHKYRYDYWGQGTQVTVSS,low polyreactivity
7,QVQLVESGLGLVQAGGSLRISCAASGLTIYYYAMGWYRQAPGKERELVAAITWRGGSTYYADSVKGRFTISRDNAKNTVYLQMNSLKPEDTAVYYCNKAYKYIRQQPYRTKRYDYWGQGTQGTVSS,low polyreactivity
8,QVQLVESGGGLVQAGGSLRLSCAASGNTLRVYALGWYRQAPGKERELVAAISYSSVNTYYADSVKGRFTISRDNAKNTVYLQMNSLKPEDTAVYYCAADYYYYRRTQYDLRGYPYYYWGQGTQVTVSS,low polyreactivity
9,QVQLVESGGGLVQAGGSLRLSCAASGSTFYSYAMGWYRQAPGKERELVAAITYSDGDTYYADSVKGRFTISRDNAKNTVYLQMNSLKPEDTAVYYCAAEYQGQPGTGNLEYWGQGTQVTVSS,low polyreactivity
10,QVQLVESGGGLVQAGGSLRLSCAASGSIFWGYAMGWYRQAPGKERELVATISWTGGSTYYADSVKGRFTISRDNAKNTVYLQMNSLKPEDTAVYYGAKVIIHYYYVVNLVDVDYWGQGTQVTVSS,low polyreactivity
11,QVQLVESGGGLVQAGGSLRLSCAASGSTFYRYAMGWYRQAPGKERELVAAITWNGGSTYYADSVKGRFTISRDNAKNTVYLQMNSLKPEDTAVYYCNKVSRRDTYEYDYWGQGTQVTVSS,high polyreactivity
12,QVQLVESGGGLVQAGGSLRLSCAASGGTFYYYAMGWYRQAPGKERELVAAISWSGVSTSYADSVKGRFTISRDNAKNTVFLQMNSMKPEDTAVYYCAAGPFYYTGGHWGQGTQVTVSS,high polyreactivity
13,QVQLVESGGRLVQAGGSLRLSCAASGRIFVYNAMRWYRQAPGKERELVASITSSGGSTYYADSVKGRFTISRDNAKNTVYLQMNSLKPEDTAVYYCAADVQPDTRSTPEMDYWGQGTQVTVSS,low polyreactivity
14,QVQLVESGGGLVQAGGSLRLSCAASGSTFWSYTMGWYRQAPWKERDLVARNTGRGGSTYYADSVKGRFTISRDNEKNTVYLLMNSLKTEDTAVYYCAAGGGRYGFYRFDYWRQGTQVTVSS,low polyreactivity
15,QVQLVDSGGGVVQAGGSLLLSCPASGLIIKVYAMGWYRQAPGKERELVAAITYSGGSTDYADSVKGRFTISRDNAKNTVFLQMISLKPEDTAVYYCNVEKVGHVNSYGYDYWGQGTQVTVSS,low polyreactivity
16,QVQLVESGGGLVQAGGSLRLSCAASGIIFTYYAMGWYRQAPGKERELVASISSSGTSTYYADSVKGRFTISRDYAKNTVYLQMNSLKPEDTAVYYCAADWTGSNGVDYWGQGTQVTVSS,low polyreactivity
17,QVQLVESGGGLVQAGGSLRLSCAASGRIFRRYAMGWYRQAPGKEREFVAAITWSGSSTYYADSVKGRFTISRDNAKNTVYLQMNSLKPEDTAVYYCAARHYAVRRSRYPGKLGYYWGQGTQVTVSS,high polyreactivity
18,QVQLVESGGGLVQAGGSLRLSCAASGRTFRWNVMGWYRQAPGKERELVAAISSDGSTYYADSVKGRFTISGDNAKNTVYLQMNSLKPEDTAVYYCAAVVSYYFRYGGSAYKYGYWGQGTQVTVSS,high polyreactivity
19,QVQLVESGGGLVQAGGSLRLSCAASGFTFPVYAMGWYRQAPGKEREFVAAITKSGGGTYYADSVKGRFTISRDNAKNTVYLQMNSLKPVDTAVYYCAKASRRFLTLGYDYWGQGTQVTVSS,high polyreactivity
20,QVQLVESGGGLVQAGGSLRLSCAASGSILFANAMGWYRQAPGKERELVAAIRGSGSTYYADSVKGRFTISRDNAKNTVYLQMNSLKPEDTAVYYCAKRHLISIPDYGRHEYDYWGQGTQVTVSS,low polyreactivity
21,QVQLVESGGGLVQAGGSLRLSCAASGSTFSVNAMGWYRQAPGKERELVAAISSTGSTKYADSVKGRFTISRDNAKNTVYLQIISLKPEDTAVYCAASNADYEYYPFSDWYFSPYDYWGQGTQVTVSS,low polyreactivity
